Measured values as given in patent publication US5670616.

Target: FLAG GG 9-mer (SEQ ID NO:20)

completeness of proteolytic cleavage (relative mobility on SDS gels): 100%
Substance: Trypsin (type XI DPCC treated) (enzyme)
